Laboratory results reported in US20250144178A1, “PHARMACEUTICAL COMPOSITION FOR CANCER TREATMENT COMPRISING FUSION PROTEIN INCLUDING IL-12 AND ANTI-FAP ANTIBODY AND ANTICANCER AGENT” (KANAPH THERAPEUTICS INC., priority 2022, published 2025).

Key:
[1] = target: mouse FAP (fibroblast activation protein alpha) overexpressed in B16F10 cells (B16F10-mFAP) (mouse) (UniProt P97321); test: flow cytometry on B16F10-mFAP cells, anti-mouse IgG2a antibody alone
B16F10 = test: flow cytometry on parental B16F10 cells, anti-mouse IgG2a antibody alone
[2] = target: human FAP (fibroblast activation protein alpha) overexpressed in HEK293 cells (HEK293-hFAP) (human) (UniProt Q12884); test: flow cytometry on HEK293-hFAP cells, anti-human IgG antibody alone
[3] = target: IL-12 receptor of human T cells (human) (UniProt P42701); test: cell-based or functional assay
IL-12 receptor of human T cells (human), sequence (Q99665 24-862, chain 2 of 2, other chains not shown): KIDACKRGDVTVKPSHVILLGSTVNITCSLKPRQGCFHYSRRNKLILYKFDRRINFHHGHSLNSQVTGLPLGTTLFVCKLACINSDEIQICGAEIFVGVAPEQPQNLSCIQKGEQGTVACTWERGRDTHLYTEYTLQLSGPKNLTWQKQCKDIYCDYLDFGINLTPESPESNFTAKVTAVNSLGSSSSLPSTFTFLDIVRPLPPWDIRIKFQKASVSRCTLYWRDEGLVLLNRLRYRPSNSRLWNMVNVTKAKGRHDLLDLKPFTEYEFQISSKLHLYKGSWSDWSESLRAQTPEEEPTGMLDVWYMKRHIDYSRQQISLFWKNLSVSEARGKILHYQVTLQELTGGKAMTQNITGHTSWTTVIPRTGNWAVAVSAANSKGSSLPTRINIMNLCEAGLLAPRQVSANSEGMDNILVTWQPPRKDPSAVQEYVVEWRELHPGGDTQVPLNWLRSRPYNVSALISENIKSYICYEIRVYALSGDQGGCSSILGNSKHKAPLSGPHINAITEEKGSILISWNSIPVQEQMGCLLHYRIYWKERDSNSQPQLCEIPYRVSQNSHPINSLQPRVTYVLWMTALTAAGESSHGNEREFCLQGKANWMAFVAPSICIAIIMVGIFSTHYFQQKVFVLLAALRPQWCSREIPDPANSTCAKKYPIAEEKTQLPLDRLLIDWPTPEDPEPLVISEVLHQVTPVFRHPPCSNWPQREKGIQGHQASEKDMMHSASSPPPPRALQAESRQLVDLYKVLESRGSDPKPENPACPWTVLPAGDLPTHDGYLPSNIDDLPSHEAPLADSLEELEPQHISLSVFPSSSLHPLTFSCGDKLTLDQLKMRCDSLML

mouse FAP (fibroblast activation protein alpha) overexpressed in B16F10 cells (B16F10-mFAP) (mouse), sequence (P97321 whole entry): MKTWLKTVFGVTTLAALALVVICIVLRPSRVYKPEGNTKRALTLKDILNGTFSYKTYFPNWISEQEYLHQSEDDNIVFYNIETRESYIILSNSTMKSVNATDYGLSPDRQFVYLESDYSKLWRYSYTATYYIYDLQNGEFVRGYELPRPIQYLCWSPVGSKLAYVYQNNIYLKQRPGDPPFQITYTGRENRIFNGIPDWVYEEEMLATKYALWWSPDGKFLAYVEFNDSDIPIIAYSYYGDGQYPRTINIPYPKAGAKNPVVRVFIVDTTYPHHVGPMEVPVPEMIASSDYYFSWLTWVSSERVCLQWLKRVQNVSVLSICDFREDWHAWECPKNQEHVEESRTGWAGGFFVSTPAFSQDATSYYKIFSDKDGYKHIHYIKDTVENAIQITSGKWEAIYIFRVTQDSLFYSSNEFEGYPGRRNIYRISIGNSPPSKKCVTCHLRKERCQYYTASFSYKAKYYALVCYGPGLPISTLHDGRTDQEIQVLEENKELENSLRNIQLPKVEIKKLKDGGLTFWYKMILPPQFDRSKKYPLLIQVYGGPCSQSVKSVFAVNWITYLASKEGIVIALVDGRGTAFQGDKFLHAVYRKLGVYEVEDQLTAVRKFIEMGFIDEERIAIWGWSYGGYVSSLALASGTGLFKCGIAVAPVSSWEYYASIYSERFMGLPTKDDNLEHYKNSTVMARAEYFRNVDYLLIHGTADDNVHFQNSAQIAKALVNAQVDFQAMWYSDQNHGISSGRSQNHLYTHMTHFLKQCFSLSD
human FAP (fibroblast activation protein alpha) overexpressed in HEK293 cells (HEK293-hFAP) (human), sequence (Q12884 whole entry): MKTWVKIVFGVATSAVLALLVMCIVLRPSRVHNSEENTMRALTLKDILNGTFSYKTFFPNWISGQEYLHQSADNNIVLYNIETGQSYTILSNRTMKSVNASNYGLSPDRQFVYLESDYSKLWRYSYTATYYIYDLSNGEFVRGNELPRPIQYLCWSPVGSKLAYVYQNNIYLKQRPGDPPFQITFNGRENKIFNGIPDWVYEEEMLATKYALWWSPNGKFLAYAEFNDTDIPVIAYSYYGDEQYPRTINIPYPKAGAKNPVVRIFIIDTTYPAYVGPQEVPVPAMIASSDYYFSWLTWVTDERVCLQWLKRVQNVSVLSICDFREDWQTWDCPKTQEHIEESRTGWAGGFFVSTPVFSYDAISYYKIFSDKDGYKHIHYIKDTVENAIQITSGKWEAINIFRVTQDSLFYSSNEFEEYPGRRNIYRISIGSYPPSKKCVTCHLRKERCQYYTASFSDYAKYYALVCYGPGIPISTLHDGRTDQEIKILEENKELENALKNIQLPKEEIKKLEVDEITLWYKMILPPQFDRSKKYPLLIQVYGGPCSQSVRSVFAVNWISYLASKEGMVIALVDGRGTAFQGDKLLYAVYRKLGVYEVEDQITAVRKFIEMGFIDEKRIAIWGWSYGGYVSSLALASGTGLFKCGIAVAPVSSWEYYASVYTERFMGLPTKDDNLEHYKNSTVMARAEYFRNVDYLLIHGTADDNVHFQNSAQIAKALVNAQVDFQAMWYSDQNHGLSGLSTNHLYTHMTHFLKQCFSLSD

2nd Ab only (antibody)
percent of cells in the positive gate (mFAP-PE) [1]: 3.44% | percent of cells in the positive gate (mFAP-PE) (B16F10): 1.04%

2nd only (antibody)
percent of cells in the positive gate (hFAP-PE) [2]: 0.16%

recombinant human IL-12 (from UniProt P29459 23-219; P29460 23-328) (ligand)
half maximal effective concentration (EC50) of p-STAT4 (Tyr693), AlphaLISA, activated human T cells [3]: 8.95 pM
